Measured values taken from patent publication US20200317768A1 (published 2020).

T1: cynomolgus monkey FcγRIIa3 extracellular domain, C-terminal His-tag (cynomolgus monkey)
T1 construct: also called cyno FcγRIIa3; cynoFcgRIIa3; not shown: His-tag added to C-terminus
T1 chain: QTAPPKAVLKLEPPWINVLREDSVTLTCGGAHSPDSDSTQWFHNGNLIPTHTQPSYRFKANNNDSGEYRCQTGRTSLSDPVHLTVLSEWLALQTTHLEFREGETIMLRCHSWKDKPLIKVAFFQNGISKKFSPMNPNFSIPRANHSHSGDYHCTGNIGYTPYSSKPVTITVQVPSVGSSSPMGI

T2: human FcγRIIaH extracellular domain, C-terminal His-tag (human, UniProt P12318 34-217)
T2 construct: also called human FcγRIIa (type H); FcgRIIaH; not shown: His-tag added to C-terminus
T2 sequence: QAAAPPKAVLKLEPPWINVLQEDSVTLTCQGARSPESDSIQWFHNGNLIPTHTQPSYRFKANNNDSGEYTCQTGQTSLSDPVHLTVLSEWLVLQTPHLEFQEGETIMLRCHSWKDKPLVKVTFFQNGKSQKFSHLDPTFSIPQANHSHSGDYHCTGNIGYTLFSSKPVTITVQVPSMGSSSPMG

T3: cynomolgus monkey FcγRIIa2 extracellular domain, C-terminal His-tag (cynomolgus monkey)
T3 construct: also called cyno FcγRIIa2; cynoFcgRIIa2; not shown: His-tag added to C-terminus
T3 chain: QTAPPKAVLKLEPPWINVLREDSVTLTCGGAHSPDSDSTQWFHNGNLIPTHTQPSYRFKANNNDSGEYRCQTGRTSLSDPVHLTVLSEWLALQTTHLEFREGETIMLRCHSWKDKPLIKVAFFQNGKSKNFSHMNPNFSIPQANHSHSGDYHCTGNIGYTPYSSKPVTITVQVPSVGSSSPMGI

T4: human FcγRIIb extracellular domain, C-terminal His-tag (human, UniProt P31994 43-217)
T4 construct: also called humanFcgRIIb; not shown: His-tag added to C-terminus
T4 sequence: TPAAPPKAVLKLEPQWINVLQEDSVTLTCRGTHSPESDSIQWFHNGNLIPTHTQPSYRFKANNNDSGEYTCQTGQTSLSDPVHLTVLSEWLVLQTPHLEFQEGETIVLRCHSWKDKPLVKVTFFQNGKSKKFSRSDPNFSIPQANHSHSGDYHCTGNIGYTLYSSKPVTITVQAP

T5: cynomolgus monkey FcγRIIb extracellular domain, C-terminal His-tag (cynomolgus monkey)
T5 construct: also called cyno FcγRIIb; cynoFcγRIIb; not shown: His-tag added to C-terminus
T5 chain: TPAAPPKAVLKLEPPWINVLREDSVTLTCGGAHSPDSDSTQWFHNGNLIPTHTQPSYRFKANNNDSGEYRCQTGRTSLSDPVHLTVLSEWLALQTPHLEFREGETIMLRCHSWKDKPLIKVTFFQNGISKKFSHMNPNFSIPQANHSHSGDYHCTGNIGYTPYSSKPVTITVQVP

T6: cynomolgus monkey FcγRIIa2 extracellular domain, His-tagged (cynomolgus monkey)
T6 construct: also called cyno FcgRIIa2; cynoFcγRIIa2; not shown: His-tag added to the C-terminus
T6 chain: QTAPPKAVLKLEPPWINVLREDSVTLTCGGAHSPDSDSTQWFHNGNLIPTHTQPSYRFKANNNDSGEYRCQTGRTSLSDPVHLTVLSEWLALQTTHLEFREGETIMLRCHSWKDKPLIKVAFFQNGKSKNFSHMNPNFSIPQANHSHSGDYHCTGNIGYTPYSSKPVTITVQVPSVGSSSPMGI


Legend:
[1] = biological target: T1, cynomolgus monkey FcγRIIa3 …; experiment: SPR (BIACORE); KD of SG1 / KD of variant
[2] = biological target: T2, human FcγRIIaH extracellular domain, …; experiment: SPR (BIACORE); KD of SG1 / KD of variant
[3] = biological target: T7, cynomolgus monkey FcγRIIIaS extracellular domain, C-terminal His-tag (cynomolgus monkey, UniProt A3RFZ7 21-206 (rhesus entry)); experiment: SPR (BIACORE); KD of SG1 / KD of variant
T7 construct: also called cyno FcγRIIIaS; cynoFcγRIIIaS; not shown: His-tag added to C-terminus
T7 sequence (A3RFZ7 21-206): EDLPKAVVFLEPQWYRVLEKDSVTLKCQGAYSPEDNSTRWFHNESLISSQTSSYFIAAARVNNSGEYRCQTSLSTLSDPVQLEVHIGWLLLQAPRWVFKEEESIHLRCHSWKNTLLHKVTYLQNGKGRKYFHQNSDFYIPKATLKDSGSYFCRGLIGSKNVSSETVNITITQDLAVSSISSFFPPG

[4] = biological target: T8, human FcγRIIIaV extracellular domain, C-terminal His-tag (human, UniProt P08637 17-208); experiment: SPR (BIACORE); KD of SG1 / KD of variant
T8 construct: also called FcgRIIIaV; not shown: His-tag added to C-terminus
T8 sequence (P08637 17-208 F176V): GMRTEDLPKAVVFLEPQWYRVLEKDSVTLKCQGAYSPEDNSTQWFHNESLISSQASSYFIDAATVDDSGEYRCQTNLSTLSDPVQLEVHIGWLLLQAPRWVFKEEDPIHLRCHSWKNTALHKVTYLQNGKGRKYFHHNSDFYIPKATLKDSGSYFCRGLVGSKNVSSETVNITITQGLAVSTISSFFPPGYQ

[5] = biological target: T3, cynomolgus monkey FcγRIIa2 …; experiment: SPR (BIACORE); KD of SG1 / KD of variant
[6] = biological target: T4, human FcγRIIb extracellular domain, …; experiment: SPR (BIACORE); KD of SG1 / KD of variant
[7] = biological target: T5, cynomolgus monkey FcγRIIb extracellular …; experiment: SPR (BIACORE); KD of SG1 / KD of variant
[8] = biological target: T9, human FcγRIIIaV extracellular domain, His-tagged (human, UniProt P08637 17-208); experiment: SPR; KD of SG1 divided by KD of the variant
T9 construct: also called human FcgRIIIaV; not shown: His-tag added to the C-terminus
T9 sequence (P08637 17-208 F176V): as above
Description: (§1) Regarding such interactions, KD values were calculated using the following 1:1 binding model described in BIACORE® T100 Software Handbook BR1006-48 Edition AE.
(§2) The behavior of interacting molecules according to the 1:1 binding model on BIACORE® can be described by Equation 1: Req=C·R max/(KD+C)+RI, wherein, Req is a plot of steady-state binding levels to analyte concentration. C is concentration, RI is bulk refractive index contribution in the sample, and Rmax is analyte binding capacity of the surface. When this equation is rearranged, KD can be expressed as Equation 2: KD=C·Rmax/(Req−RI)−C. KD can be calculated by substituting the values of Rmax, RI, and C into Equation 1 or Equation 2. From the current measurement conditions, RI=0, C=2 μmol/L can be used.
(§3) The resultant variants were expressed using M103202L889-SK1 as light chain and their affinity to human and cynoFcγRs were evaluated (Table 21).

[9] = biological target: T6, cynomolgus monkey FcγRIIa2 …; experiment: SPR; KD of SG1 divided by KD of the variant
Description: as §1, §2, §3
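Note: relative to parent M103205H795-SG1 carrying the SG1 human heavy chain constant region.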

Row | KD fold (SG1 = 1) [1] [fold] | KD fold (SG1 = 1) [2] [fold] | KD fold (SG1 = 1) [3] [fold] | KD fold (SG1 = 1) [4] [fold] | KD fold (SG1 = 1) [5] [fold] | KD fold (SG1 = 1) [6] [fold] | KD fold (SG1 = 1) [7] [fold] | KD fold (SG1 = 1) [8] [fold] | KD fold (SG1 = 1) [9] [fold] | Binder
1 | 8.9 | 0.7 | 0.07 | 0.06 | 6.7 | 3.8 | 5.1 | – | – | M103205H795-MY351 / M103202L889-SK1 (antibody, human IgG1, kappa, CH with G236N/H268D/Q311R/A330K/D413K against SG1 (EU numbering); also called MS1032LO06-MY351) heavy: QVTLKESGPVLVKPTETLTLTCTVSGIDLSHDDISWVRQAPGKGLEWVGIISYAGSTYYASWAKGRLTISKDTSKNQVVLTMTNMDPVDTATYYCARGVPAYSHGGDLWGQGTLVTVSSASTKGPSVFPLAPSSKSTSGGTAALGCLVKDYFPEPVTVSWNSGALTSGVHTFPAVLQSSGLYSLSSVVTVPSSSLGTQTYICNVNHKPSNTKVDKKVEPKSCDKTHTCPPCPAPELLNGPSVFLFPPKPKDTLMISRTPEVTCVVVDVSDEDPEVKFNWYVDGVEVHNAKTKPREEQYNSTYRVVSVLTVLHRDWLNGKEYKCKVSNKALPKPIEKTISKAKGQPREPQVYTLPPSREEMTKNQVSLTCLVKGFYPSDIAVEWESNGQPENNYKTTPPVLDSDGSFFLYSKLTVKKSRWQQGNVFSCSVMHEALHNHYTQKSLSLSP light: DIVMTQSPATLSLSPGERATLSCTSSQSVYHANWLSWFQQKPGQPPKLLIYWASTLAYGVPSRFSGSGSGTDFTLTISSLQPEDAATYYCAGGYGGGRYAFGQGTKVEIKRTVAAPSVFIFPPSDEQLKSGTASVVCLLNNFYPREAKVQWKVDNALQSGNSQESVTEQDSKDSTYSLSSTLTLSKADYEKHKVYACEVTHQGLSSPVTKSFNRGEC
2 | – | – | – | – | – | – | – | 0.03 | 3.6 | M103205H795-MY201/M103202L889-SK1 (antibody, human IgG1, kappa, Fc variant G236N/H268D/A330K (EU numbering) of SG1; also called MS1032LO06-MY201; copies: 2 + 2) heavy: QVTLKESGPVLVKPTETLTLTCTVSGIDLSHDDISWVRQAPGKGLEWVGIISYAGSTYYASWAKGRLTISKDTSKNQVVLTMTNMDPVDTATYYCARGVPAYSHGGDLWGQGTLVTVSSASTKGPSVFPLAPSSKSTSGGTAALGCLVKDYFPEPVTVSWNSGALTSGVHTFPAVLQSSGLYSLSSVVTVPSSSLGTQTYICNVNHKPSNTKVDKKVEPKSCDKTHTCPPCPAPELLNGPSVFLFPPKPKDTLMISRTPEVTCVVVDVSDEDPEVKFNWYVDGVEVHNAKTKPREEQYNSTYRVVSVLTVLHQDWLNGKEYKCKVSNKALPKPIEKTISKAKGQPREPQVYTLPPSREEMTKNQVSLTCLVKGFYPSDIAVEWESNGQPENNYKTTPPVLDSDGSFFLYSKLTVDKSRWQQGNVFSCSVMHEALHNHYTQKSLSLSP light: DIVMTQSPATLSLSPGERATLSCTSSQSVYHANWLSWFQQKPGQPPKLLIYWASTLAYGVPSRFSGSGSGTDFTLTISSLQPEDAATYYCAGGYGGGRYAFGQGTKVEIKRTVAAPSVFIFPPSDEQLKSGTASVVCLLNNFYPREAKVQWKVDNALQSGNSQESVTEQDSKDSTYSLSSTLTLSKADYEKHKVYACEVTHQGLSSPVTKSFNRGEC
3 | – | – | – | – | – | – | – | 0.27 | 1.4 | M103205H795-MY260/M103202L889-SK1 (antibody, human IgG1, kappa, copies: 2 + 2) heavy: QVTLKESGPVLVKPTETLTLTCTVSGIDLSHDDISWVRQAPGKGLEWVGIISYAGSTYYASWAKGRLTISKDTSKNQVVLTMTNMDPVDTATYYCARGVPAYSHGGDLWGQGTLVTVSSASTKGPSVFPLAPSSKSTSGGTAALGCLVKDYFPEPVTVSWNSGALTSGVHTFPAVLQSSGLYSLSSVVTVPSSSLGTQTYICNVNHKPSNTKVDKKVEPKSCDKTHTCPPCPAPELLMGPSVFLFPPKPKDTLMISRTPEVTCVVVDVSDEDPEVKFNWYVDGVEVHNAKTKPREEQYNSTYRVVSVLTVLHQDWLNGKEYKCKVSNKALPKPIEKTISKAKGQPREPQVYTLPPSREEMTKNQVSLTCLVKGFYPSDIAVEWESNGQPENNYKTTPPVLDSDGSFFLYSKLTVDKSRWQQGNVFSCSVMHEALHNHYTQKSLSLSP light: DIVMTQSPATLSLSPGERATLSCTSSQSVYHANWLSWFQQKPGQPPKLLIYWASTLAYGVPSRFSGSGSGTDFTLTISSLQPEDAATYYCAGGYGGGRYAFGQGTKVEIKRTVAAPSVFIFPPSDEQLKSGTASVVCLLNNFYPREAKVQWKVDNALQSGNSQESVTEQDSKDSTYSLSSTLTLSKADYEKHKVYACEVTHQGLSSPVTKSFNRGEC
